The results in this text go back to PMC5762688 (2018).

The target of assay [1] is His6-importin α2/GST-importin β1 heterodimer (mouse), pre-dimerized (mouse, UniProt P52293 1-529; P70168 1-876).
Assay [2] deals with GST-exportin-1-His6/Ran-GTPγS complex, preformed (UniProt O14980 1-1071; P62826 1-216).

As usually defined, the Kd is the free concentration of one partner at which half of the binding sites on the other are occupied at equilibrium, for simple one-to-one binding. A lower Kd goes with tighter binding.

Sequence of GST-exportin-1-His6/Ran-GTPγS complex, preformed (O14980 whole entry, one chain of several): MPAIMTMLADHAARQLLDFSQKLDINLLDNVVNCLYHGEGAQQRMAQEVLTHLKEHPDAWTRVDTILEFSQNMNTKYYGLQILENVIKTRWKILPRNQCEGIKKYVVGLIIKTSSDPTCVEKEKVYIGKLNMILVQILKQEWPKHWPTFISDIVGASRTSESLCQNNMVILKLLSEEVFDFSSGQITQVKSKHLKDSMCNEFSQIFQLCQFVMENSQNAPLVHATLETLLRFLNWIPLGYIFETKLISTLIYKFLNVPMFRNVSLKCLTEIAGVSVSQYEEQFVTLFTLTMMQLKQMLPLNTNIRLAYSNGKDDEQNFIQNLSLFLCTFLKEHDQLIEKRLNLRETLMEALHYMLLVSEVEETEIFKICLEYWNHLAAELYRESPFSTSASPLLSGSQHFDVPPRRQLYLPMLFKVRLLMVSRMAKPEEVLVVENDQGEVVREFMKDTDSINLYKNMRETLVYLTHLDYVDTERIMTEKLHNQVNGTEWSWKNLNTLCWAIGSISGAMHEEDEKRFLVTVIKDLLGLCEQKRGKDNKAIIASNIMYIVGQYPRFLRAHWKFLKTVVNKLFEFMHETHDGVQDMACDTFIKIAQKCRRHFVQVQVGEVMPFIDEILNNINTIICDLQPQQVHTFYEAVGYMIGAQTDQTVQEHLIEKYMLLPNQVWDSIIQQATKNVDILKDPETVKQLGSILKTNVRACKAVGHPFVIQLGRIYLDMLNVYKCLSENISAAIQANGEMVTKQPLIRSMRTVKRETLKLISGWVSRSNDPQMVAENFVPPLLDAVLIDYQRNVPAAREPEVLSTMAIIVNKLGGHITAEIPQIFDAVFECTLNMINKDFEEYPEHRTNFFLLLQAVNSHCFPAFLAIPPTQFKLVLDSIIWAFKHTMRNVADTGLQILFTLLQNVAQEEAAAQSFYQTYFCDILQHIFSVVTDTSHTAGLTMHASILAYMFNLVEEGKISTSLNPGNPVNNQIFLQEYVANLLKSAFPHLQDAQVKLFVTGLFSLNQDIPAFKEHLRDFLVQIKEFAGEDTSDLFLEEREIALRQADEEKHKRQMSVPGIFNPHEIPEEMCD

B1: Biotinylated Hendra virus V protein (natural protein)
chain: MDKLDLVNDGLDIIDFIQKNQKEIQKTYGRSSIQQPSTKDRTRAWEDFLQSTSGEHEQAEGGMPKNDGGTEGRNVEDLSSVTSSDGTIGQRVSNTRAWAEDPDDIQLDPMVTDVVYHDHGGECTGHGPSSSPERGWSYHMSGTHDGNVRAVPDTKVLPNAPKTTVPEEVREIDLIGLEDKFASAGLNPAAVPFVPKNQSTPTEEPPVIPEYYYGSGRRGDLSKSPPRGNVNLDSIKIYTSDDEDENQLEYEDEFAKSSSEVVIDTTPEDNDSINQEEVVGDPSDQGLEHPFPLGKFPEKEETPDVRRKDSLMQDSCKRGGVPKRLPMLSEEFECSGSDDPIIQELEREGSHPGGSLRLREPPQSSGNSRNQPDRQLKTGDAASPGGVQRPGTPMPKSRIMPIKKGHRREVSICWDGRRAWVEEWCNPVCSRITPQPRKQECYCGECPTECSQCCHEE
B1: the equilibrium dissociation constant (Kd) worked out at 14.9 nM in assay [1] and 9.2 nM in assay [2].
